Measurements from US20050065327A1 (AstraZeneca / MedImmune, published 2005).
Where a chain is given by its changes, count along the chain named. One block for each binder: values may come before it.

Columns and labels:
Assay in all cases: cell-based or functional assay
[1] = target: non-human primate IL-13 (rhesus and cynomolgus, identical sequences) with carboxyl terminus affinity tag … (rhesus and cynomolgus monkey)
[2] = target: human IL-13 (recombinant, bacterially derived, Peprotech) (human, UniProt P35225 15-146)
Sequence of human IL-13 (recombinant, bacterially derived, Peprotech) (P35225 other isoform, or with tags, fused parts or gaps): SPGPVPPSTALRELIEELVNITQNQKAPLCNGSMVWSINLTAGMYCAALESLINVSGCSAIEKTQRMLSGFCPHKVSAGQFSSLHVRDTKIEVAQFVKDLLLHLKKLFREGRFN

[3] = target: native (naturally occurring) human IL-13 released from HDLM-2 cells (human, UniProt P35225 15-146)
Sequence of native (naturally occurring) human IL-13 released from HDLM-2 cells (P35225 other isoform, or with tags, fused parts or gaps): as above

Sequence of non-human primate IL-13 (rhesus and cynomolgus, identical sequences) with carboxyl terminus affinity tag … (rhesus and cynomolgus monkey) (Q864V6 19-132): as the sequence (P35225 other isoform, or with tags, fused parts or gaps) above, with G3S, P7R, R12K, M44V, S69N, H85R, L102V counted along it

B1: BAK502G9 IgG4 (antibody, V domains shown)
VH: QVQLVQSGAEVKKPGASVKVSCKASGYTFTNYGLSWVRQAPGQGLEWMGWISANNGDTNYGQEFQGRVTMTTDTSTSTAYMELRSLRSDDTAVYYCARDSSSSWARWFFDLWGRGTLVTVSS
VL: SYVLTQPPSVSVAPGKTARITCGGNIIGSKLVHWYQQKPGQAPVLVIYDDGDRPSGIPERFSGSNSGNTATLTISRVEAGDEADYYCQVWDTGSDPVVFGGGTKLTVL
IC50, TF-1 cell proliferation assay [1]: 2 nM

B2: BAK1167F2 scFv (scFv, V domains shown)
VH: B1 VH with T30E, N31Q, Y32T, L34V
VL: B1 VL
Mean TF1 IC50 [2]: 0.2 nM

B3: BAK502G9 scFv (scFv, V domains shown)
VH: B1 VH
VL: B1 VL
Mean TF1 IC50 [2]: 8 nM

Other lines, results leading:

Mean TF1 IC50 [2]: 0.2 nM
B4: BAK1183H4 scFv (scFv, V domains shown)
VH: B1 VH with S52N, A53Y, N54D, N55G, D57N, N59Q
VL: B1 VL

IC50, HDLM-2 cell proliferation assay [3]: 3500 nM
B5: BAK1183H4 IgG4 (antibody, V domains shown)
VH: B1 VH with S52N, A53Y, N54D, N55G, D57N, N59Q
VL: B1 VL
